± gives the standard deviation of the averaged measurements.
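Further: ATP exposure 15 min at 22 °C before imaging.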

For this data set, the system named is ATP. Put plainly: switch fluorescence ratio, 500 uM ATP over buffer (Cy3 cluster intensity, sum of 5 cycles each) (fold (ratio)); higher = stronger signal-on switching upon ATP binding; sequences stand for … in TCGTCGGCAGCGTCAGATGTGTATAAGAGACAGTTTTTTTTTTTTTTTTTTTTTTTTT…TC. The conditions noted are these: aptamer strand: ATP DNA aptamer (quencher-CACCTGGGGGAGTATTGCGGAGGAAGG + anchor), 100 nM annealed; ATP concentration: 500 uM. In short, it runs like this:
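Clusters carrying Cy3-labelled switching strands on a modified Illumina MiSeq flow-cell were annealed to 100 nM quencher-labelled ATP aptamer and imaged in selection buffer. They were imaged again after 15 min with 500 uM ATP at 22 °C, over five buffer/ATP cycles with NaOH stripping and re-annealing in between. For each cluster, the fluorescence ratio is the summed Cy3 intensity of the target cycles divided by that of the buffer cycles, averaged per switch-domain sequence. Clusters outside 100-1000 RFU were left out.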
For the sequence TTGGGCCACG, the switch fluorescence ratio was determined as 0.983 ± 0.011.
Regarding TCATTCTAGG, the switch fluorescence ratio stood at 1.009 ± 0.0031.
Consider ATAACGTTGA, for which the switch fluorescence ratio stood at 0.99 ± 0.017.
ACATGGTTAG: the switch fluorescence ratio was 0.987 ± 0.03.
CAGTTAGAAA: the switch fluorescence ratio was 0.9952 ± 0.0075.
For the sequence CGTTGTTGGA, the switch fluorescence ratio was 1 ± 0.025.
In the case of TTGGGAGTAC, the switch fluorescence ratio is 0.942 ± 0.059.
For TGTAATGGGG, the switch fluorescence ratio turned out to be 0.966 ± 0.015.
For GTTTAAAAAA, the switch fluorescence ratio is 1 ± 0.021.
As for CATTTGGAAG, the figure is 1.02 ± 0.061; as for TTTGGGTCTT, 1.02 ± 0.013.
As for ATTTGGCGGT, the figure is 0.997 ± 0.025; as for TCAATTGTAA, 1.05 ± 0.051.
For the sequence AAGGGGGAAT, the switch fluorescence ratio was found to be 1.05 ± 0.031.
With TTTGAATAGG, the switch fluorescence ratio was found to be 1.01 ± 0.016.
Consider TCTCTTTCTG, for which the switch fluorescence ratio stood at 0.9729 ± 0.0073.
Regarding ATTGTGGTCC, the switch fluorescence ratio amounted to 1.007 ± 0.0082.
With AGGGGTATGG, the switch fluorescence ratio was determined as 0.998 ± 0.017.
GAATGTAGCA: the switch fluorescence ratio was 1.03 ± 0.011.
For AGTATTTGAG, the switch fluorescence ratio stood at 0.975 ± 0.023.
GCTCCGGCGG: the switch fluorescence ratio is 1.24 ± 0.045.
For CGGTATTTAA, the switch fluorescence ratio turned out to be 1.02 ± 0.046.
As for GAGGTGAGG, the figure is 0.989 ± 0.011.
In the case of CATTGGGTTG, the switch fluorescence ratio turned out to be 0.9633 ± 0.0019.
Next, TTTTTTGACC: 1.02 ± 0.044; GCGCTCCGGG: 1.09 ± 0.072; TGACAGGGGA: 1.02 ± 0.033.
Take ATGCAATCAT: the switch fluorescence ratio amounted to 1.038 ± 0.0026.
Consider GGGTGGTGTA, for which the switch fluorescence ratio came to 1.07 ± 0.096.
AATCGTCAGG: the switch fluorescence ratio was found to be 1.01 ± 0.012.
Take GATGATGTAT: the switch fluorescence ratio is 1.01 ± 0.033.
For the sequence CAGTAGAGG, the switch fluorescence ratio was determined as 0.979 ± 0.019.
In the case of AGTCGGTTCG, the switch fluorescence ratio came out at 0.986 ± 0.03.
In the case of TTTGGGGGGG, the switch fluorescence ratio was 1 ± 0.051.
As for TTTGCCTCAA, the switch fluorescence ratio was found to be 1.01 ± 0.011.
For GGACGTTTTG, the switch fluorescence ratio was determined as 0.98 ± 0.012.
For the sequence TCAGGGCGAT, the switch fluorescence ratio was determined as 1.03 ± 0.026.
TGTAAGGTTT: the switch fluorescence ratio is 1.01 ± 0.024.
Turning to GGGTCAAGCG, the switch fluorescence ratio was 0.943 ± 0.017.
On to TGGGGTCTGT, for which the switch fluorescence ratio was 0.993 ± 0.02.
Next, ATGGAGCTTG: 0.983 ± 0.02; AGAATGGGCA: 0.989 ± 0.029.
TATGCTTATA: the switch fluorescence ratio was found to be 0.98 ± 0.014.
Next, ACTTTGAAGC: 0.996 ± 0.019; TCGTGAGTGG: 0.975 ± 0.021.
Next, GCGCGGCTGG: 1.02 ± 0.00077; TAATAGGTTG: 0.97 ± 0.012.
Take TTAGAAAACT: the switch fluorescence ratio worked out at 1 ± 0.012.
As for CCGGGGTCGA, the switch fluorescence ratio was found to be 1.57 ± 0.77.
Turning to TGGGAACGGG, the switch fluorescence ratio worked out at 0.983 ± 0.018.
With AGGACAGGTG, the switch fluorescence ratio is 1.33 ± 0.055.
As for TTTAAGGTAG, the figure is 0.993 ± 0.018.
Regarding TTCGTTTTGT, the switch fluorescence ratio is 0.9975 ± 0.0097.
GATGCTCCTT: the switch fluorescence ratio is 1.05 ± 0.031.
As for CTAAGGCATG, the switch fluorescence ratio is 1.05 ± 0.0013.
For the sequence TTTATAACAG, the switch fluorescence ratio is 0.982 ± 0.021.
On to AGGCGGCTGA, for which the switch fluorescence ratio stood at 1.05 ± 0.021.
Next, TTATGTTTTT: 1.01 ± 0.025.
As for GGGTTAAGGG, the figure is 0.984 ± 0.035; as for CGTGATGGAG, 1.011 ± 0.009; as for CGTTATGTTC, 0.9772 ± 0.0031.
Next, TGTGGTGAGT: 0.963 ± 0.012; TATAATCGGT: 0.975 ± 0.014.
Take TAGGATAGAC: the switch fluorescence ratio stood at 1 ± 0.017.
With GAGTTTGTGT, the switch fluorescence ratio was 0.996 ± 0.011.
With TTAAAGAGGC, the switch fluorescence ratio worked out at 0.993 ± 0.032.
Take ATGTGGCTTA: the switch fluorescence ratio is 0.989 ± 0.022.
For AAGTGGGTTT, the switch fluorescence ratio was 1.02 ± 0.037.
TAGCAGGGGG: the switch fluorescence ratio is 1.03 ± 0.011.
Consider TTGTATACCT, for which the switch fluorescence ratio came out at 1.17 ± 0.02.
Next, AAAGGGCGAC: 0.973 ± 0.014; GTTTATGCAT: 1 ± 0.022.
As to TTGGGCGCAT, the switch fluorescence ratio is 0.99 ± 0.025.
As for GGGGAAAATT, the figure is 0.993 ± 0.036; as for GGCGGCGGGA, 0.998 ± 0.027; as for ATTAGATTTT, 1.02 ± 0.12.
For AGAATTGGGG, the switch fluorescence ratio amounted to 0.982 ± 0.027.
AGGCGGGTAA: the switch fluorescence ratio was found to be 1.022 ± 0.0082.
On to TTAGTTTTCT, for which the switch fluorescence ratio came to 0.96 ± 0.013.

The values are drawn from the supplement of paper PMC10126150.
